Series [1] deals with Glu63 (UniProt position 64, AAEVLELAGNA). The series can be described thus: NMR. Particulars: 303 K; 200 mM (adjusted with NaCl); 20 mM sodium acetate (pH 4.4-5.1), 20 mM MES (pH 5.4-6.5), 20 mM sodium phosphate (pH 6.8-7.9), 20 mM CHES (pH 9.1); folded free H2A-H2B heterodimer.
For series [2], the target named is Glu60 (UniProt position 61, EYLAAEVLELA). The series can be described thus: NMR. Particulars: 303 K; 200 mM (adjusted with NaCl); 20 mM sodium acetate (pH 4.4-5.1), 20 mM MES (pH 5.4-6.5), 20 mM sodium phosphate (pH 6.8-7.9), 20 mM CHES (pH 9.1); folded free H2A-H2B heterodimer.
Series [3] addresses Glu90 (UniProt position 91, AIRNDEELNKL). The series can be described thus: NMR. Conditions: 303 K; 200 mM (adjusted with NaCl); 20 mM sodium acetate (pH 4.4-5.1), 20 mM MES (pH 5.4-6.5), 20 mM sodium phosphate (pH 6.8-7.9), 20 mM CHES (pH 9.1); folded free H2A-H2B heterodimer.
Series [4] concerns the target Glu55 (UniProt position 56, LAAVMEYLAAE). The series can be described thus: NMR. Particulars: 303 K, 200 mM (adjusted with NaCl).
Series [5] addresses Asp89 (UniProt position 90, LAIRNDEELNK). Kind of series: NMR. Particulars: 303 K; 200 mM (adjusted with NaCl); 20 mM acetate pH 4.5, 5.1; 20 mM MES pH 5.6, 6.0, 6.5; 20 mM phosphate pH 6.8, 7.5, 7.9; 20 mM CHES pH 9.1; folded free H2A-H2B heterodimer (150 uM).
For series [6], the target named is Glu91 (UniProt position 92, IRNDEELNKLL). The series can be described thus: NMR. Particulars: 303 K, 200 mM (adjusted with NaCl).
Series [7] has as its system His46.
Series [8] concerns the target His79 (UniProt position 80, ASRLAHYNKRS). The series can be described thus: NMR. Particulars: 303 K; 200 mM (adjusted with NaCl); 20 mM acetate pH 4.4, 5.0; 20 mM MES pH 5.4, 5.8, 6.2; 20 mM phosphate pH 6.8, 7.1, 7.5; folded free H2A-H2B heterodimer (150 uM).
Series [9] addresses His106 (UniProt position 107, GELAKHAVSEG). The series can be described thus: NMR. Particulars: 303 K; 200 mM (adjusted with NaCl); 20 mM acetate pH 4.4, 5.0; 20 mM MES pH 5.4, 5.8, 6.2; 20 mM phosphate pH 6.8, 7.1, 7.5; folded free H2A-H2B heterodimer (150 uM).
Where [10] appears, read: 20 mM sodium acetate (pH 4.4-5.1), 20 mM MES (pH 5.4-6.5), 20 mM sodium phosphate (pH 6.8-7.9), 20 mM CHES (pH 9.1), folded free H2A-H2B heterodimer.

Values joined by “and” are separate entries in the source; they are usually repeats but may differ in a detail not shown here. Identical values can stand only once. Some results are limits rather than exact numbers.

Usually pKa stands for the negative logarithm of the acid dissociation constant. A higher pKa goes with a weaker acid or stronger base. Consider “Histone H2A (in the free H2A-H2B heterodimer) (Drosophila melanogaster)”, for which the pKa in series [1] was less than 5; in series [2] it was less than 5; in series [3], less than 5; in series [4] (20 mM acetate pH 4.5, 5.1, 20 mM MES pH 5.6, 6.0, 6.5, 20 mM phosphate pH 6.8, 7.5, 7.9, 20 mM CHES pH 9.1, folded free H2A-H2B heterodimer (150 uM)) it was 4.32 ± 0.08 [4.08–4.78]; in series [4] (setting [10]) it was less than 5; in series [5], 5.51 ± 0.11 [4.37–6.07] and 5.02 ± 0.28 [4.61–5.61] and 5.3. Further, the pKa in series [6] (20 mM acetate pH 4.4, 5.0, 20 mM MES pH 5.4, 5.8, 6.2, 20 mM phosphate pH 6.8, 7.1, 7.5, folded free H2A-H2B heterodimer (150 uM)) was 4.36 ± 0.06 [3.89–4.79]; in series [6] (setting [10]) it was less than 5.
As to “Histone H2B (in the free H2A-H2B heterodimer) (Drosophila melanogaster)”, the pKa in series [7] is 5.86 ± 0.03 [5.66–6.06] and 5.64 ± 0.02 [5.54–5.74] and 5.75 ± 0.03 [5.52–5.92]; in [8], 6.7; in [9], 6.52 ± 0.05 [6.23–6.93].

Source of the values: PMC8626509.
